Residue numbers refer to the chain shown, from its start. Numbers in names are those of the source.
Columns and labels:
[1] = substrate: O=c1[nH]c(=O)c2[nH]c(=O)[nH]c2[nH]1; assay: Michaelis-Menten kinetics, wild type Arthrobacter globiformis uricase; type: biochemical; details: other: role: substrate; non-PEGylated; Table 8B; pH 10.5
From the text: Non-PEGylated deimmunized Arthrobacter globiformis uricase variants were created by introducing additional amino acid substitutions into the R49S variant Arthrobacter globiformis uricase of SEQ ID NO:6 disclosed in Nyborg et al., PLOS One, 2016, DOI: 10.1371/journal.pone.0167935. For ease of description, the R49S variant Arthrobacter globiformis uricase of SEQ ID NO:6 is referred to as the wild type Arthrobacter globiformis uricase herein, as it serves as the enzyme being mutated to arrive at the variants. The monomeric form of the wild type Arthrobacter globiformis uricase comprises the amino acid sequence of SEQ ID NO:6, where methionine is residue #1. The specified mutations in the Arthrobacter globiformis uricase variants of this example are indexed to methionine as residue #1, as in SEQ ID NO:6. […]
Select Arthrobacter globiformis uricase variants MedU_1B7, MedU_5B8, MedU_1C2, MedU_5C9, MedU_5E6, MedU_5E9, and MedU_IF1 were subject to further characterization by comparing their expression yields, Michaelis-Menten kinetics parameters, and thermostability measured by temperatures at which 50% of normal activity was lost determined by heat stress activity assay, with those of the wild type Arthrobacter globiformis uricase. The expression yields were determined as described above in the “Methods” section. […]

[2] = substrate: O=c1[nH]c(=O)c2[nH]c(=O)[nH]c2[nH]1; assay: Michaelis-Menten kinetics, MedU_1F1; type: biochemical, Arthrobacter globiformis; details: other: role: substrate; non-PEGylated; Table 8B; pH 10.5
Experimental: (§1) Select Arthrobacter globiformis uricase variants MedU_1B7, MedU_5B8, MedU_1C2, MedU_5C9, MedU_5E6, MedU_5E9, and MedU_IF1 were subject to further characterization by comparing their expression yields, Michaelis-Menten kinetics parameters, and thermostability measured by temperatures at which 50% of normal activity was lost determined by heat stress activity assay, with those of the wild type Arthrobacter globiformis uricase. The expression yields were determined as described above in the “Methods” section. The Michaelis-Menten kinetics parameters kcat and KM, and temperatures at which 50% of normal activity was lost (i.e., 50% thermal inactivation temperatures, referred to as TI50 (° C.)) measured by heat stress activity assay were likewise determined using the methods described in Example 1.

[3] = substrate: O=c1[nH]c(=O)c2[nH]c(=O)[nH]c2[nH]1; assay: Michaelis-Menten kinetics, MedU_1C2; type: biochemical, Arthrobacter globiformis; details: other: role: substrate; non-PEGylated; Table 8B; pH 10.5
Experimental: as §1

[4] = substrate: O=c1[nH]c(=O)c2[nH]c(=O)[nH]c2[nH]1; assay: Michaelis-Menten kinetics, MedU_1B7; type: biochemical, Arthrobacter globiformis; details: other: role: substrate; non-PEGylated; Table 8B; pH 10.5
Experimental: as §1

[5] = substrate: O=c1[nH]c(=O)c2[nH]c(=O)[nH]c2[nH]1; assay: Michaelis-Menten kinetics, MedU_5B8; type: biochemical, Arthrobacter globiformis; details: other: role: substrate; non-PEGylated; Table 8B; pH 10.5
Experimental: as §1

[6] = substrate: O=c1[nH]c(=O)c2[nH]c(=O)[nH]c2[nH]1; assay: Michaelis-Menten kinetics, MedU_5C9; type: biochemical, Arthrobacter globiformis; details: other: role: substrate; non-PEGylated; Table 8B; pH 10.5
Experimental: as §1

[7] = substrate: O=c1[nH]c(=O)c2[nH]c(=O)[nH]c2[nH]1; assay: Michaelis-Menten kinetics, MedU_5E9; type: biochemical, Arthrobacter globiformis; details: other: role: substrate; non-PEGylated; Table 8B; pH 10.5
Experimental: as §1

[8] = substrate: O=c1[nH]c(=O)c2[nH]c(=O)[nH]c2[nH]1; assay: purified protein, by the assay type; type: biochemical, chimeric pig-baboon; details: other: role: substrate
Experimental: Variants 1 (dURC1) and 3 (dURC3) were identified as possible lead candidates. Besides the mutations according to the library design, i.e., the designed mutations of F75Q; K79N; T83Q; E90H; F96H; I100E; Y105D; V119K; F172Y; L260N; and I262T, dURC3 comprised an off-position amino acid mutation K76N. An off-position amino acid mutation is defined as having a non-designed amino acid at a non-target site. […] Specifically, in the dURC1 backbone, the following mutations were tested separately: L154T; K155D; K155N; L157H; L157T; T159E; T159Q; and S162D; and in the dURC3 backbone, the K155N mutation was tested. […] The characteristics, including yield, activity, melting temperature measured by DSF, temperature at which 50% of normal activity was lost after heating measured by heat stress activity assay, Michaelis-Menten kinetics parameters, of variants 1, 2, 3, and 4 (i.e., dURC1, dURC2, dURC3 and dURC4), as well as the wild type chimeric pig-baboon uricase, are summarized in Table 2. The amino acid sequences of dURC1, dURC2, dURC3 and dURC4 are shown as SEQ ID NO: 1, 2, 3, and 4, respectively.
(§2) The activity of the purified enzymes was quantified by Michaelis Menten kinetic analysis, using the solution phase microplate assay across a range of substrate concentrations (FIG. 4B).

[9] = substrate: O=c1[nH]c(=O)c2[nH]c(=O)[nH]c2[nH]1; assay: purified protein, by the assay type; type: biochemical, chimeric pig-baboon; details: other: role: substrate; remark: listed apart in the source
[10] = substrate: O=c1[nH]c(=O)c2[nH]c(=O)[nH]c2[nH]1; assay: purified protein, by the assay type; type: biochemical, chimeric pig-baboon; details: other: role: substrate; remark: listed apart in the source
From the text: The monomeric form of the wild type chimeric pig-baboon uricase comprises the amino acid sequence of SEQ ID NO:5, where threonine is residue #1. The specified mutations in the chimeric pig-baboon uricase variants of this example are indexed to threonine as residue #1, as in SEQ ID NO:5. […] The expression vector pET-26b(+) encodes a His tag containing 6 histidine residues at the C-terminus of the inserted uricase gene.
as §2

[11] = non-PEGylated, pH 10.5, 25° C., Table 2
[12] = purified enzyme, non-linear regression, Table 3, pH 10.5, 25.0 °C

B1: Arthrobacter globiformis uricase, wild type (R49S variant, referred to as wild type), SEQ ID NO: 6 (Arthrobacter globiformis; R49S) (protein)
chain: MTATAETSTGTKVVLGQNQYGKAEVRLVKVTRNTARHEIQDLNVTSQLSGDFEAAHTAGDNAHVVATDTQKNTVYAFARDGFATTEEFLLRLGKHFTEGFDWVTGGRWAAQQFFWDRINDHDHAFSRNKSEVRTAVLEISGSEQAIVAGIEGLTVLKSTGSEFHGFPRDKYTTLQETTDRILATDVSARWRYNTVEVDFDAVYASVRGLLLKAFAETHSLALQQTMYEMGRAVIETHPEIDEIKMSLPNKHHFLVDLQPFGQDNPNEVFYAADRPYGLIEATIQREGSRAD
notes: His6 (C); made in house; host or cells: E. coli
B1 showed a Km [1] of 270 ± 80 µM and a kcat [1] of 2.3 ± 0.2 s⁻¹.

B2: Arthrobacter globiformis uricase variant MedU_1F1, A35D/A83G/L89G/V195E/Y203H/A204E/A213G/L220H/I243V/K244S/K250N, SEQ ID NO: 95 (Arthrobacter globiformis; … (protein)
chain: MTATAETSTGTKVVLGQNQYGKAEVRLVKVTRNTDRHEIQDLNVTSQLSGDFEAAHTAGDNAHVVATDTQKNTVYAFARDGFGTTEEFGLRLGKHFTEGFDWVTGGRWAAQQFFWDRINDHDHAFSRNKSEVRTAVLEISGSEQAIVAGIEGLTVLKSTGSEFHGFPRDKYTTLQETTDRILATDVSARWRYNTEEVDFDAVHESVRGLLLKGFAETHSHALQQTMYEMGRAVIETHPEIDEVSMSLPNNHHFLVDLQPFGQDNPNEVFYAADRPYGLIEATIQREGSRAD
notes: R49S backbone, 291 aa; pET-26b(+), C-terminal His6, E. coli; non-PEGylated
B2 showed a Km [2] of 370 ± 60 µM and a kcat [2] of 2.5 ± 0.1 s⁻¹.

B3: Arthrobacter globiformis uricase variant MedU_1C2, A145T/V195E/I243V/K244S/K250N/Y270H, SEQ ID NO: 80 (Arthrobacter globiformis; … (protein)
chain: B1 chain with A145T, V195E, I243V, K244S, K250N, Y270H
notes: as for B2
With B3 the Km [3] was 500 ± 90 µM and the kcat [3] was 3.4 ± 0.2 s⁻¹.

B4: Arthrobacter globiformis uricase variant MedU_1B7, A35D/A83G/A145T/A148S/A204G/A213G/I243V/K244S, SEQ ID NO: 77 (Arthrobacter globiformis; … (protein)
chain: B1 chain with A35D, A83G, A145T, A148S, A204G, A213G, I243V, K244S
notes: as for B2
B4 was tested, and the Km [4] was 440 ± 90 µM and the kcat [4] was 3.8 ± 0.2 s⁻¹.

B5: Arthrobacter globiformis uricase variant MedU_5B8, A35D/A83G/A145T/A148S/V195E/A204D/A213G/L220H/I243V/K244S, SEQ ID NO: 134 (Arthrobacter globiformis; … (protein)
chain: B2 chain with G89L, A145T, A148S, H203Y, E204D, N250K
notes: as for B2
Work on B5 yielded a Km [5] of 390 ± 80 µM and a kcat [5] of 3.9 ± 0.2 s⁻¹.

B6: Arthrobacter globiformis uricase variant MedU_5C9, A35D/A145H/A148S/V195D/A204D/A213G/K244S/K250N, SEQ ID NO: 144 (Arthrobacter globiformis; … (protein)
chain: B1 chain with A35D, A145H, A148S, V195D, A204D, A213G, K244S, K250N
notes: as for B2
Protein B6 has a Km [6] of 340 ± 80 µM and a kcat [6] of 2.4 ± 0.1 s⁻¹.

B7: Arthrobacter globiformis uricase variant MedU_5E9, N33E/A35D/A83G/A145T/A148S/V195D/A204D/A213G/L220K/K244S/Y270H, SEQ ID NO: 164 (Arthrobacter globiformis; … (protein)
chain: MTATAETSTGTKVVLGQNQYGKAEVRLVKVTRETDRHEIQDLNVTSQLSGDFEAAHTAGDNAHVVATDTQKNTVYAFARDGFGTTEEFLLRLGKHFTEGFDWVTGGRWAAQQFFWDRINDHDHAFSRNKSEVRTAVLEISGSEQTIVSGIEGLTVLKSTGSEFHGFPRDKYTTLQETTDRILATDVSARWRYNTDEVDFDAVYDSVRGLLLKGFAETHSKALQQTMYEMGRAVIETHPEIDEISMSLPNKHHFLVDLQPFGQDNPNEVFHAADRPYGLIEATIQREGSRAD
notes: as for B2
In the case of B7, the Km [7] is reported as 800 ± 100 µM and the kcat [7] is reported as 6.0 ± 0.4 s⁻¹.

B8: chimeric pig-baboon uricase variant 1 (dURC1), F75Q/K79E/T83Q/E90H/F96H/I100H/Y105D/V119K/Y127H/F172Y/L260N, SEQ ID NO: 1 (Sus scrofa; … (protein)
chain: TYKKNDEVEFVRTGYGKDMIKVLHIQRDGKYHSIKEVATTVQLTLSSKKDYLHGDNSDVIPTDTIKNTVNVLAKQKGIESIEQFAVTICHHFLSSHKHVHRAQVDVEEVPWKRFEKNGKKHVHAFIHTPTGTHFCEVEQIRNGPPVIHSGIKDLKVLKTTQSGFEGFIKDQYTTLPEVKDRCFATQVYCKWRYHQGRDVDFEATWDTVRSIVLQKFAGPYDKGEYSPSVQKTLYDIQVLTLGQVPEIEDMEISLPNIHYNNIDMSKMGLINKEEVLLPLDNPYGKITGTVKRKLSSRL
notes: purified
Work on B8 yielded a Km [8, 11] of 678 µM and a Km [8, 12] of 700 ± 100 µM.

B9: chimeric pig-baboon uricase variant 3 (dURC3), F75Q/K76N/K79N/T83Q/E90H/F96H/I100E/Y105D/V119K/F172Y/L260N/I262T, SEQ ID NO: 3 (Sus scrofa; … (protein)
chain: B8 chain with K76N, E79N, H100E, H127Y, I262T
notes: purified
In the case of B9, the Km [9, 11] is reported as 595 µM and the Km [9, 12] is reported as 600 ± 70 µM.

B10: chimeric pig-baboon uricase variant 4 (dURC4), F75Q/K76N/K79N/T83Q/E90H/F96H/I100E/Y105D/V119K/K155N/F172Y/L260N/I262T, SEQ ID NO: 4 (Sus scrofa; … (protein)
chain: B8 chain with K76N, E79N, H100E, H127Y, K155N, I262T
notes: purified
For B10, the Km [8, 11] was 347 µM and the Km [8, 12] was 350 ± 20 µM.

B11: chimeric pig-baboon uricase variant 2 (dURC2), F75Q/K79E/T83Q/E90H/F96H/I100H/Y105D/V119K/Y127H/K155N/F172Y/L260N, SEQ ID NO: 2 (Sus scrofa; … (protein)
chain: B8 chain with K155N
notes: purified
With B11 the Km [8, 11] was 467 µM and the Km [8, 12] was 470 ± 60 µM.

B12: chimeric pig-baboon uricase, wild type, SEQ ID NO: 5 (Sus scrofa; R291K/S46T/T301S) (protein)
chain: TYKKNDEVEFVRTGYGKDMIKVLHIQRDGKYHSIKEVATTVQLTLSSKKDYLHGDNSDVIPTDTIKNTVNVLAKFKGIKSIETFAVTICEHFLSSFKHVIRAQVYVEEVPWKRFEKNGVKHVHAFIYTPTGTHFCEVEQIRNGPPVIHSGIKDLKVLKTTQSGFEGFIKDQFTTLPEVKDRCFATQVYCKWRYHQGRDVDFEATWDTVRSIVLQKFAGPYDKGEYSPSVQKTLYDIQVLTLGQVPEIEDMEISLPNIHYLNIDMSKMGLINKEEVLLPLDNPYGKITGTVKRKLSSRL
notes: as for B1
B12 was tested, and the Km [10, 11] was 397 µM and the Km [10, 12] was 400 ± 50 µM.
